Source: publication PMC6980832, “Crystal structures of Triosephosphate Isomerases from Taenia solium and Schistosoma mansoni provide insights for vaccine rationale and drug design against helminth parasites” (PLoS Neglected Tropical Diseases, 2020)

B1: Triosephosphate isomerase from Schistosoma mansoni (enzyme)
chain: GPHMSGSRKFFVGGNWKMNGSRDDNDKLLKLLSEAHFDDNTEVLIAPPSVFLHEIRKSLKKEIHVAAQNCYKVSKGAFTGEISPAMIRDIGCDWVILGHSERRNIFGESDELIAEKVQHALAEGLSVIACIGETLSERESNKTEEVCVRQLKAIANKIKSADEWKRVVVAYEPVWAIGTGKVATPQQAQEVHNFLRKWFKTNAPNGVDEKIRIIYGGSVTAANCKELAQQHDVDGFLVGGASLKPEFTEICKARQR
notes: three additional amino acids (Gly, Pro, His) before the initial methionine, left from the modified pET19 vector; triosephosphate isomerase, Schistosoma mansoni, XP_018647623; all 253 amino acids visible in the crystal structure; also called SmTPI; wild-type SmTPI; source: E. coli strain devoid of its endogenous triosephosphate isomerase gene, purified (two purification steps)
B2: Triosephosphate isomerase from Taenia solium (enzyme)
chain: GPHMTRKLFVGGNWKMNGSYSHINTFFDTLQKADTDPNADIVIGVPACYLKYAQDKAPKGIKIAAENCYKVGSGAFTGEISTEMIKDCGCEWVILGHSERRHIFGESNELIGEKVKHALDSGLNVIPCIGELLSEREAGKTNDVCFAQMDAIAKNVPSKEAWDKVVIAYEPVWAIGTGKTATPAQAQEVHKVVRDWIRKHVDAGIADKVRILYGGSVTASNAKDLGTQPDVDGFLVGGASLKPDFITIINARR
notes: three additional amino acids (Gly, Pro, His) before the initial methionine, left from the modified pET19 vector; triosephosphate isomerase, Taenia solium, GenBank AAG21132.1; all 250 amino acids visible in the crystal structure; also called TsTPI; source: E. coli strain devoid of its endogenous triosephosphate isomerase gene, purified (two purification steps)

Columns and labels:
[1] = biological target: the molecule itself; assay: SEC; gel filtration elution profile of wild-type and point mutants of SmTPI; conditions not shown
[2] = biological target: the molecule itself; assay: crystal structure; sitting drop; protein 20 mg/ml incubated with 10 mM 2-phosphoglyceric acid in storage buffer; homodimer seen in the crystal

| Protein | stoichiometry N [1] | binding result [2] |
| --- | --- | --- |
| B1 | 2 | – |
| B2 | – | binds |
